One assay addresses T1, human CD47 (human, UniProt Q08722 19-323).
T1 construct: whole, on cells; Overexpressed on rat C6 cells, or endogenous on human tumour cell lines; also called KT14; hKT14
Put plainly: binding to C6 cells overexpressing human CD47 (FIGS. 17A-17B).

Assay [1] deals with T2, human MDR1 (multidrug resistance protein 1) (human, UniProt P08183 1-1280).
T2 construct: also called ABCB1; P-glycoprotein 1
Put plainly: binding to C6 cells overexpressing human ABCB1 (FIGS. 17A-17B).

In assay [2] the target is T2, human MDR1 (multidrug resistance …). The assay is described as follows: cell-based or functional assay.
The target of assay [3] is T3, cynomolgus MDR1 (Macaca fascicularis) (Macaca fascicularis (cynomolgus), UniProt P08183 1-1280 (human entry)).
T3 construct: also called cB1; cynomolgus ABCB1
Put plainly: flow cytometry.

In assay [4] the target is T2, human MDR1 (multidrug resistance …). Put plainly: flow cytometry. On the technique in general: Flow cytometry measures light scatter and fluorescence of single cells or particles in a stream.
The target in assay [5] is T3, cynomolgus MDR1 (Macaca fascicularis). Put plainly: flow cytometry, 293T cells transfected with cynomolgus MDR1.
For assay [6], the target named is T2, human MDR1 (multidrug resistance …). The assay is described as follows: flow cytometry, 293T cells overexpressing human MDR1.
Assay [7] addresses T3, cynomolgus MDR1 (Macaca fascicularis). The assay is described as follows: flow cytometry on cells expressing cynomolgus MDR1.

B1: 15D3DD KT14KK B1.89v1 LC (bispecific antibody, human IgG1)
heavy 1: not shown
heavy 2: not shown
VL: DVLMTQTPLSLPVSLGDQASISCRSSQTIVHSNGNTYLEWYLQKPGQSPKLLIYKVSKRFSGVPDRFSGSGSGTDFTLKISRVEAEDLGVYYCFQASHFPRTFGGGTKLEIK
notes: also called 15D3DD/KT14KK/89v1
For B1, the binding result (with human CD47; in assay [1]) was “binds” in each case.

B2: B1.129 (antibody, human IgG1, V domains shown)
VH: EVQLQQSGPELVKPGASVKMSCKASGYTFSTYVIHWVKQKPGQGLEWIGYIYPYNDYTKYNEKFKDKATLTSDKSSSTAYMEIRSLTSEDSAVYYCSRAYYGNLVGYGVDYWGQGTSVTVSS
VL: QIVLTQSPAILPASPGEKVTMTCRASSSVSFIYWYQQRPGSSPKPWIFATSNLASGVPARFSGSGSGTSYSLTISRVEAEDAATYYCHQWGSNLPTFGGGTKLEIK
notes: expressed with human IgG1 heavy and human kappa light constant regions; also called KNJY B1-129; KB1.129
As to B2, the “IC50 of vincristine on N6/ADR cells with antibody” value in assay [2] was 13.2 pM. For the same molecule, the binding result in assay [3] is reported as “binds”.

B3: B1.129.huH1-huL1(KV3) (antibody, human IgG1, V domains shown)
VH: EVQLVQSGAEVKKPGASVKVSCKASGYTFSTYVIHWVRQAPGQGLEWIGYIYPYNDYTKYNEKFKDRATLTSDKSTSTAYMELRSLRSDDTAVYYCSRAYYGNLVGYGVDYWGQGTTVTVSS
VL: EIVLTQSPATLSLSPGERATLSCRASSSVSFIYWYQQKPGQSPRPWIFATSNLASGVPARFSGSGSGTDYTLTISSLEPEDFAVYYCHQWGSNLPTFGGGTKLEIK
notes: Humanized B1.129; Human IgG1/kappa constant regions; also called B1.129.hz1
In the case of B3, the binding result in assay [4] and in assay [5] was “binds” each time.

B4: B1.129.huH1-huL1(KV1) (antibody, human IgG1, V domains shown)
VH: EVQLVQSGAEVKKPGASVKVSCKASGYTFSTYVIHWVRQAPGQGLEWIGYIYPYNDYTKYNEKFKDRATLTSDKSTSTAYMELRSLRSDDTAVYYCSRAYYGNLVGYGVDYWGQGTTVTVSS
VL: DIQLTQSPSSLSASVGDRVTITCRASSSVSFIYWYQQKPGKSPKPWIFATSNLASGVPSRFSGSGSGTDYTLTISSLQPEDFATYYCHQWGSNLPTFGGGTKLEIK
notes: Humanized B1.129; Human IgG1/kappa constant regions; also called B1.129.hz2
Turning to B4, the binding result in assay [6] and in assay [5] was “no binding” each time.

B5: B1.261 (antibody, human IgG1, V domains shown)
VH: QVQLKESGPGLVAPSQSLSITCTVSGFSLTSYGVHWVRQPPGKGLEWLVVIWSDGSTTYNSALKSRLSISKDNSKSQVFLKMNSLQIDDTAMYYCARHGRWLLQRGGAMDYWGQGTSVTVSS
VL: DVVMTQAPKFMSTSVGDRVSVTCRASQNVGSYIAWYQQKLGQSPKALIYSASYRCSGVPDRFTGSGAGTDFTLTIRNVQSEDLAEYFCQQYNSYPLTFGGGTKLEIK
notes: expressed with human IgG1 heavy and human kappa light constant regions; also called KNJY B1-261; KB1.261
In the case of B5, the “IC50 of vincristine on N6/ADR cells with antibody” value in assay [2] was 3.8 pM. Further, the binding result in assay [7] is reported as “binds”.

The values above are taken from patent US20230203156A1 (WILLIAM ROBERT ARATHOON LIVING TRUST DATED AUGUST 29 2016, published 2023).
